A value given as a limit tells only on which side of the number the result lay.

The values that follow come from the Immune Epitope Database (IEDB).

The target of experiment [1] is HLA-A*02:01. The experiment is described as follows: IEDB peptide-MHC binding, purified MHC/competitive/radioactivity; ≥ and ≤ were set here for values at or beyond the usual limits of such assays. To be noted: source organism: Homo sapiens.
Experiment [2] addresses HLA-B*73:01. In words: IEDB peptide-MHC binding, purified MHC/competitive/fluorescence; filed as Kd, often an IC50 or EC50 that approximates it; ≥ and ≤ were set here for values at or beyond the usual limits of such assays.
In experiment [3] the target is HLA-A*03:01. The description is as above. To be noted: source organism: Escherichia coli F11.
Another experiment has as its target HLA-B*15:42. The description is as above.
The target of experiment [4] is HLA-A*31:01. Described as above. To be noted: source organism: Escherichia coli F11.
Another experiment addresses HLA-B*83:01. Described as above.
Another experiment has as its target HLA-A*68:23. The description is as above. To be noted: source organism: Escherichia coli F11.
The target of another experiment is HLA-A*32:15. Described as above. To be noted: source organism: Escherichia coli F11.
The next experiment deals with HLA-B*45:06. The description is as above.
A further experiment deals with HLA-B*15:17. The experiment is described as above. To be noted: source organism: Rickettsia prowazekii str. Madrid E.
Another experiment has as its target HLA-B*08:01. The description is as above. To be noted: source organism: Rickettsia prowazekii str. Madrid E.
The target in the next experiment is HLA-A*30:01. The description is as above. To be noted: source organism: Rickettsia prowazekii str. Madrid E.
Experiment [5] has as its target HLA-A*03:01. The experiment is described as follows: IEDB peptide-MHC binding, purified MHC/direct/fluorescence; filed as Kd, often an IC50 or EC50 that approximates it; ≥ and ≤ were set here for values at or beyond the usual limits of such assays. To be noted: source organism: Rickettsia prowazekii.
For a further experiment, the target named is HLA-B*07:02. The description is as above.
Experiment [6] addresses HLA-A*31:01. The experiment is described as above. To be noted: source organism: Rickettsia prowazekii.
A further experiment addresses HLA-B*15:09. The experiment is described as above. To be noted: source organism: Rickettsia typhi str. Wilmington.
The next experiment concerns the target HLA-B*57:01. The experiment is described as above. To be noted: source organism: Rickettsia prowazekii.
Another experiment deals with HLA-B*15:01. The description is as above. To be noted: source organism: Rickettsia prowazekii.
Another experiment deals with HLA-B*27:05. Described as above.
The next experiment deals with HLA-C*15:02. The experiment is described as above.
The target in a further experiment is HLA-A*01:01. The experiment is described as above. To be noted: source organism: Rickettsia prowazekii.
A further experiment has as its target HLA-A*26:01. The description is as above. To be noted: source organism: Rickettsia typhi str. Wilmington.
For experiment [7], the target named is HLA-B*73:01. The experiment is described as above.
The target of another experiment is HLA-B*08:03. The description is as above. To be noted: source organism: Rickettsia typhi str. Wilmington.
Another experiment addresses HLA-B*18:01. Described as above. To be noted: source organism: Rickettsia prowazekii.
For another experiment, the target named is HLA-B*48:01. The experiment is described as above.
In experiment [8] the target is HLA-C*06:02. The experiment is described as above.
A further experiment has as its target HLA-A*68:02. The experiment is described as above. To be noted: source organism: Rickettsia prowazekii.
For the next experiment, the target named is HLA-A*69:01. The experiment is described as above. To be noted: source organism: Rickettsia prowazekii.
Experiment [9] concerns the target HLA-A*02:01. The experiment is described as above. To be noted: source organism: Rickettsia prowazekii.
In a further experiment the target is HLA-A*11:01. The description is as above. To be noted: source organism: Rickettsia prowazekii.
Another experiment deals with HLA-B*58:01. The experiment is described as above. To be noted: source organism: Rickettsia prowazekii.
The target in the next experiment is HLA-B*08:02. The experiment is described as above. To be noted: source organism: Rickettsia typhi str. Wilmington.
In a further experiment the target is HLA-B*39:01. The experiment is described as follows: IEDB peptide-MHC binding, purified MHC/competitive/fluorescence; filed as Kd, often an IC50 or EC50 that approximates it; ≥ and ≤ were set here for values at or beyond the usual limits of such assays. To be noted: source organism: Salmonella enterica subsp. enterica serovar Paratyphi B str. SPB7.
In the next experiment the target is HLA-B*40:01. The experiment is described as above. To be noted: source organism: Salmonella enterica subsp. enterica serovar Paratyphi B str. SPB7.
A further experiment addresses HLA-B*27:20. The experiment is described as above. To be noted: source organism: Salmonella enterica subsp. enterica serovar Paratyphi B str. SPB7.
In the next experiment the target is HLA-C*14:02. The description is as above. To be noted: source organism: Escherichia coli HS.
For experiment [10], the target named is HLA-C*06:02. The description is as above. To be noted: source organism: Escherichia coli HS.
A further experiment addresses HLA-B*51:01. In words: IEDB peptide-MHC binding, purified MHC/direct/fluorescence; filed as Kd, often an IC50 or EC50 that approximates it; ≥ and ≤ were set here for values at or beyond the usual limits of such assays. To be noted: source organism: Escherichia coli O157:H7.
Another experiment addresses HLA-C*08:02. Described as above. To be noted: source organism: Escherichia coli HS.
The mark [11] stands for this setting: source organism: Escherichia coli F11.
Where [12] appears, read: source organism: Rickettsia prowazekii.
Where [13] appears, read: source organism: Rickettsia prowazekii str. Madrid E.
Setting [14] is: source organism: Salmonella enterica subsp. enterica serovar Paratyphi B str. SPB7.
The mark [15] stands for this setting: source organism: Escherichia coli HS.
The mark [16] stands for this setting: source organism: Brucella abortus 2308.

By IC50 is commonly meant the midpoint of a concentration-inhibition curve. On to ILTVILGVL, for which, in the experiment with HLA-A*02:01 [1], the concentration for half-maximal inhibition (IC50) was determined as 0.381 µM.
As a reminder, the Kd is the constant that tells how readily two partners part at equilibrium. Take KEWCGNLIV: the Kd with HLA-B*73:01 [2] (source organism: Entamoeba histolytica) was no less than 20 µM.
Turning to MTYSHHACR, the dissociation constant (Kd) was 0.078 µM with HLA-A*03:01 [3]; no less than 5 µM with HLA-B*15:42 (setting [11]); 0.0183 µM in the experiment with HLA-A*31:01 [4]; no less than 5 µM in the experiment with HLA-B*83:01 (setting [11]); 0.0002 µM with HLA-A*68:23; 0.824 µM in the experiment with HLA-A*32:15. In the experiment with HLA-B*45:06 (setting [11]), this sequence came in with a dissociation constant (Kd) of no less than 5 µM.
For the sequence RRNRKALWL, the Kd in the experiment with HLA-B*15:17 is no less than 20 µM; in the experiment with HLA-B*08:01 it was 3 µM; with HLA-A*30:01, no less than 20 µM; with HLA-A*03:01 [5] it was no less than 20 µM; with HLA-B*07:02 (setting [12]), 6.89 µM; with HLA-A*31:01 [6], no less than 20 µM. Moreover, the Kd with HLA-B*15:09 was no less than 20 µM; in the experiment with HLA-B*57:01 it was no less than 20 µM; in the experiment with HLA-B*15:01 it was no less than 20 µM; with HLA-B*27:05 (setting [12]), 0.0465 µM; with HLA-C*15:02 (setting [13]), no less than 20 µM; with HLA-A*01:01, no less than 20 µM. In addition, the dissociation constant (Kd) was no less than 20 µM with HLA-A*26:01; 3.37 µM in the experiment with HLA-B*73:01 [7] (setting [12]); no less than 20 µM with HLA-B*08:03; no less than 20 µM with HLA-B*18:01; no less than 20 µM with HLA-B*48:01 (setting [12]); 0.031 µM in the experiment with HLA-C*06:02 [8] (setting [13]). Besides, the equilibrium dissociation constant (Kd) with HLA-A*68:02, in the experiment with HLA-A*69:01, in the experiment with HLA-A*02:01 [9], with HLA-A*11:01, with HLA-B*58:01 and in the experiment with HLA-B*08:02 was no less than 20 µM in each case.
In the experiment with HLA-C*06:02 [8] (source organism: Escherichia coli O157:H7 str. EDL933), TRYYWDIHL came in with a dissociation constant (Kd) of 0.051 µM.
Take YESSHWLVV: the dissociation constant Kd in the experiment with HLA-B*15:42 (setting [14]) was no less than 5 µM; with HLA-B*83:01 (setting [14]), no less than 5 µM; in the experiment with HLA-B*39:01, 0.0372 µM; with HLA-B*45:06 (setting [14]), no less than 5 µM; in the experiment with HLA-B*40:01 it was 0.005 µM; in the experiment with HLA-B*27:20, 0.113 µM.
Turning to YLREHIRAM, the Kd was no less than 5 µM with HLA-B*15:42 (setting [15]); no less than 5 µM with HLA-B*83:01 (setting [15]); 0.0018 µM in the experiment with HLA-C*14:02; no less than 5 µM with HLA-B*45:06 (setting [15]); 0.0684 µM with HLA-C*06:02 [10]; no less than 20 µM in the experiment with HLA-B*51:01. The Kd was 0.006 µM in the experiment with HLA-B*07:02 (source organism: Escherichia coli O157:H7), no less than 20 µM in the experiment with HLA-C*15:02 (setting [15]) and no less than 20 µM with HLA-C*08:02.
YRGGGQQHV: the Kd with HLA-B*73:01 [2] (source organism: Brucella abortus S19) turned out to be 3 µM.
For the sequence YRSGVPVEK, the equilibrium dissociation constant (Kd) is 0.0619 µM with HLA-B*27:05 (setting [16]), no less than 20 µM with HLA-B*73:01 [7] (source organism: Brucella suis 1330) and no less than 20 µM with HLA-B*48:01 (setting [16]).
